{
  "source": "paper PMC5350145",
  "about": "“Either fadD1 or fadD2, Which Encode acyl-CoA Synthetase, Is Essential for the Survival of Haemophilus parasuis SC096” (Frontiers in Cellular and Infection Microbiology, 2017)",
  "experiment_in_all_cases": "DTNB free-thiol (CoA) assay, Hanes-Woolf",
  "key": {"[1]": {"target": "T1, FadD1 (Glaesserella parasuis, UniProt B8F3K7)", "T1 construct": "gene lcfA; full length, His-tagged in pET28b (NdeI/HindIII), no tag removal described; E. coli BL21 host; locus tag is that of strain SH0165", "T1 sequence (B8F3K7 1-566)": "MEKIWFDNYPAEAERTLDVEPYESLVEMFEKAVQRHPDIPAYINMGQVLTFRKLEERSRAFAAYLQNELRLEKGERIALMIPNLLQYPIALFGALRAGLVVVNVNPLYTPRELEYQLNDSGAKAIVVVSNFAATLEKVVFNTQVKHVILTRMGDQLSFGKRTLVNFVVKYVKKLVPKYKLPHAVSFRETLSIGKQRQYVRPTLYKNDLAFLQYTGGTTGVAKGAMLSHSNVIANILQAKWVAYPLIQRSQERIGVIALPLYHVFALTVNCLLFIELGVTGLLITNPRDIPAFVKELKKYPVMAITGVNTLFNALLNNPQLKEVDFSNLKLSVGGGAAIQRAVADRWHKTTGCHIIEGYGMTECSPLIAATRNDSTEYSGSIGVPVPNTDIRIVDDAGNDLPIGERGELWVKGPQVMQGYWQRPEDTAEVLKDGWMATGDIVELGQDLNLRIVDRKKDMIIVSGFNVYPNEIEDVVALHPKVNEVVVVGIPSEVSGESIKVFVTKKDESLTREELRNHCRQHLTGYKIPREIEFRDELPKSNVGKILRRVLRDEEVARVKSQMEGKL", "assay_type": "biochemical", "settings": "5 mM ATP, 0.5 mM CoA, 10 mM MgCl2, 0.1% Triton X-100, pH 7.2, 37°C; read-out: Kinetic parameters^a / Km^c", "description": "(§1) DTNB free-thiol (CoA) assay, Hanes-Woolf on FadD1"}, "[2]": {"substrate": "CCCCCCCCCCCCCCCC(=O)O", "assay_type": "biochemical, Glaesserella parasuis", "settings": "5 mM ATP, 0.5 mM CoA, 10 mM MgCl2, 0.1% Triton X-100, pH 7.2, 37°C", "description": "as §1"}, "[3]": {"substrate": "CCCCCCCCCCCCCC(=O)O", "assay_type": "biochemical, Glaesserella parasuis", "settings": "5 mM ATP, 0.5 mM CoA, 10 mM MgCl2, 0.1% Triton X-100, pH 7.2, 37°C", "description": "as §1"}, "[4]": {"substrate": "CCCCCCCCCCCCCCCC(=O)O", "assay_type": "biochemical, Glaesserella parasuis", "settings": "5 mM ATP, 0.5 mM CoA, 10 mM MgCl2, 0.1% Triton X-100, pH 7.2, 37°C", "description": "(§2) DTNB free-thiol (CoA) assay, Hanes-Woolf on FadD2", "remark": "listed apart in the source"}, "[5]": {"substrate": "CCCCCCCCCCCCCC(=O)O", "assay_type": "biochemical, Glaesserella parasuis", "settings": "5 mM ATP, 0.5 mM CoA, 10 mM MgCl2, 0.1% Triton X-100, pH 7.2, 37°C", "description": "as §2", "remark": "listed apart in the source"}},
  "data": [
    {"molecule": "CCCCCCCC/C=C\\CCCCCCCC(=O)O", "note": "[C18:1]", "values": [
      {"measurement": "Km", "setting": "[1]", "value": 15.6, "unit": "µM"}
    ]},
    {"molecule": "FadD1 (Glaesserella parasuis SH0165) (protein, full length, His-tagged in pET28b (NdeI/HindIII), no tag removal described; E. coli BL21 host; locus tag is that of strain SH0165) MEKIWFDNYPAEAERTLDVEPYESLVEMFEKAVQRHPDIPAYINMGQVLTFRKLEERSRAFAAYLQNELRLEKGERIALMIPNLLQYPIALFGALRAGLVVVNVNPLYTPRELEYQLNDSGAKAIVVVSNFAATLEKVVFNTQVKHVILTRMGDQLSFGKRTLVNFVVKYVKKLVPKYKLPHAVSFRETLSIGKQRQYVRPTLYKNDLAFLQYTGGTTGVAKGAMLSHSNVIANILQAKWVAYPLIQRSQERIGVIALPLYHVFALTVNCLLFIELGVTGLLITNPRDIPAFVKELKKYPVMAITGVNTLFNALLNNPQLKEVDFSNLKLSVGGGAAIQRAVADRWHKTTGCHIIEGYGMTECSPLIAATRNDSTEYSGSIGVPVPNTDIRIVDDAGNDLPIGERGELWVKGPQVMQGYWQRPEDTAEVLKDGWMATGDIVELGQDLNLRIVDRKKDMIIVSGFNVYPNEIEDVVALHPKVNEVVVVGIPSEVSGESIKVFVTKKDESLTREELRNHCRQHLTGYKIPREIEFRDELPKSNVGKILRRVLRDEEVARVKSQMEGKL", "values": [
      {"measurement": "Km", "setting": "[2]", "value": 39.90, "unit": "µM"},
      {"measurement": "kcat", "setting": "[2]", "value": 0.098, "unit": "s⁻¹"},
      {"measurement": "kcat/Km", "setting": "[2]", "value": 2450, "unit": "M⁻¹ s⁻¹"},
      {"measurement": "Km", "setting": "[3]", "value": 41.48, "unit": "µM"},
      {"measurement": "kcat", "setting": "[3]", "value": 0.083, "unit": "s⁻¹"},
      {"measurement": "kcat/Km", "setting": "[3]", "value": 2010, "unit": "M⁻¹ s⁻¹"}
    ]},
    {"molecule": "FadD2 (Glaesserella parasuis SH0165) (protein, full length, His-tagged in pET28b (NdeI/HindIII), no tag removal described; E. coli BL21 host; locus tag is that of strain SH0165) MASLDFHFVNRFRLQAKKWLNRTALRFREQAQWQEMSWQTFQQEIDRFSYALIAQHIDIQDKIGIFANNMPRWTIADFGAMQARAVAVPIYATNTAKQVEYIVNDADIKILFVGDQEQLDQVCQIANNCPQLMKIVAMKANMDLRDLPNACYWEDFLDVVPNEAEFEKRLNSKQLSDLFTLIYTSGTTGEPKGVMLDYANLAHQLNAHDLALNVNEDDVSLSFLPLSHIFERAWVAYVFHRGATNCYLEDTNHVRDALTTLKPTVMCAVPRFYEKIYTAVWDKVEKAPAHRRALFNWAIRVGEKHYQTEQPSQWLRLQYALADKLVLTKLRALLGGRIKMMPCGGAKLEASIGSFFHSIGINIKLGYGMTETTATVSCWQDKGFNPNSIGTLMPNAEVKIGEENEILVRGGMVMRGYYKKPEETAKAFTEDGFLRTGDVGEMDSCGNLFITDRLKELMKTLNGKYIAPQYIEGKIGKDKFIEQIAVIADAKKYVSALIVPCFDSLEEYAKQLNIKYQDRIELIKHSDIIQMFERRIHELQKELPSFEQVKKFTLLPQAFSTAMEEITPTLKLRRKVIMQRYREQIEEMYNERSLT", "values": [
      {"measurement": "Km", "setting": "[4]", "value": 128.30, "unit": "µM"},
      {"measurement": "kcat", "setting": "[4]", "value": 0.020, "unit": "s⁻¹"},
      {"measurement": "kcat/Km", "setting": "[4]", "value": 160, "unit": "M⁻¹ s⁻¹"},
      {"measurement": "Km", "setting": "[5]", "value": 173.40, "unit": "µM"},
      {"measurement": "kcat", "setting": "[5]", "value": 0.002, "unit": "s⁻¹"},
      {"measurement": "kcat/Km", "setting": "[5]", "value": 10, "unit": "M⁻¹ s⁻¹"}
    ]}
  ]
}
